Test results taken from publication PMC8697598 (ACS Omega, 2021).

T1: AfGcHK (Anaeromyxobacter sp. Fw109-5, UniProt A7HD43)
T1 construct: gene gchK; full-length, C-terminal His6 tag kept, pET-21c in E. coli BL21(DE3); reconstituted with heme or cobalt protoporphyrin IX
T1 sequence (A7HD43 1-382): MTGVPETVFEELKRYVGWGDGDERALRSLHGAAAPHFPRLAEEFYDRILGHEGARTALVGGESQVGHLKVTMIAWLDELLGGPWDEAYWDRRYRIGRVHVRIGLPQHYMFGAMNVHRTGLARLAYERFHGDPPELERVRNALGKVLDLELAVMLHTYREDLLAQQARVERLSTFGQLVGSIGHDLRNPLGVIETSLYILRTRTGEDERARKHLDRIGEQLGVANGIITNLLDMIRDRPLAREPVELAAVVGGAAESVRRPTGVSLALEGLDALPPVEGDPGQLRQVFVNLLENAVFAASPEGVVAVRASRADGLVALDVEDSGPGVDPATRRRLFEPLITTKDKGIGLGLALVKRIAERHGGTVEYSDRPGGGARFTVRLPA


What was measured:
AfGcHK = target: T1, AfGcHK; test: autophosphorylation, Phos-tag SDS-PAGE; format: biochemical; conditions: Fe(III) and Fe(II)-O2 heme forms of Fe-AfGcHK; 1 mM ATP, 5 mM MgCl2, pH 8.0, 25 °C
[1] = target: the molecule itself; test: SEC; analytical gel filtration, Superdex 200 Increase 10/300 GL, 50 mM Tris-HCl pH 8.0, 100 mM NaCl; molecular weight estimated from elution volumes of standard proteins

Row | Molecule | autophosphorylation, Phos-tag SDS-PAGE (AfGcHK) | stoichiometry N [1]
1 | Nc1ncnc2c1ncn2[C@@H]1O[C@H](COP(=O)(O)OP(=O)(O)OP(=O)(O)O)[C@@H](O)[C@H]1O [ATP] | the Fe(III), and Fe(II)-O2 complexes of Fe-AfGcHK displayed autophosphorylation activity | 
2 | Fe-AfGcHK, globin-coupled histidine kinase from Anaeromyxobacter sp. Fw109-5 reconstituted with heme (iron protoporphyrin IX) (enzyme, UniProt A7HD43 1-382, looked up, AfGcHK, globin-coupled oxygen sensor histidine kinase from Anaeromyxobacter sp; Fw109-5; full-length protein with N-terminal globin sensor domain and C-terminal histidine kinase domain; predicted mass 43.0 kDa with the C-terminal His6 tag; Holds one equivalent of heme (iron protoporphyrin IX) per subunit; As purified, partially pre-autophosphorylated (about 10%, at His183); source: E. coli …) MTGVPETVFEELKRYVGWGDGDERALRSLHGAAAPHFPRLAEEFYDRILGHEGARTALVGGESQVGHLKVTMIAWLDELLGGPWDEAYWDRRYRIGRVHVRIGLPQHYMFGAMNVHRTGLARLAYERFHGDPPELERVRNALGKVLDLELAVMLHTYREDLLAQQARVERLSTFGQLVGSIGHDLRNPLGVIETSLYILRTRTGEDERARKHLDRIGEQLGVANGIITNLLDMIRDRPLAREPVELAAVVGGAAESVRRPTGVSLALEGLDALPPVEGDPGQLRQVFVNLLENAVFAASPEGVVAVRASRADGLVALDVEDSGPGVDPATRRRLFEPLITTKDKGIGLGLALVKRIAERHGGTVEYSDRPGGGARFTVRLPA |  | 2
3 | Co-AfGcHK, cobalt-substituted AfGcHK (globin-coupled histidine kinase from Anaeromyxobacter sp. Fw109-5 reconstituted with cobalt protoporphyrin IX) (enzyme, UniProt A7HD43 1-382, looked up, AfGcHK, globin-coupled oxygen sensor histidine kinase from Anaeromyxobacter sp; Fw109-5; full-length protein with N-terminal globin sensor domain and C-terminal histidine kinase domain; predicted mass 43.0 kDa with the C-terminal His6 tag; Same polypeptide and construct as m1; source: E. coli BL21(DE3), pET-21c; cobalt(III) protoporphyrin IX chloride added to the crude extract; purified (HisTrap …)) MTGVPETVFEELKRYVGWGDGDERALRSLHGAAAPHFPRLAEEFYDRILGHEGARTALVGGESQVGHLKVTMIAWLDELLGGPWDEAYWDRRYRIGRVHVRIGLPQHYMFGAMNVHRTGLARLAYERFHGDPPELERVRNALGKVLDLELAVMLHTYREDLLAQQARVERLSTFGQLVGSIGHDLRNPLGVIETSLYILRTRTGEDERARKHLDRIGEQLGVANGIITNLLDMIRDRPLAREPVELAAVVGGAAESVRRPTGVSLALEGLDALPPVEGDPGQLRQVFVNLLENAVFAASPEGVVAVRASRADGLVALDVEDSGPGVDPATRRRLFEPLITTKDKGIGLGLALVKRIAERHGGTVEYSDRPGGGARFTVRLPA |  | 2
